The data set concerns the target T1, full-length human calprotectin (heterodimer of S100A9 and S100A8), P06702.
T1 chain 1: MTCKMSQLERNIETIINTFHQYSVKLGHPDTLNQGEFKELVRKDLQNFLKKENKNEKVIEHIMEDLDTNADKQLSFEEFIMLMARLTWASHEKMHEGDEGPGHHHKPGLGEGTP
T1 chain 2: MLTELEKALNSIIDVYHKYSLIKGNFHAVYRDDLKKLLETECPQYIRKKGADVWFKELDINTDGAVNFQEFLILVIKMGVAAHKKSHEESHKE

B1: human neutrophil elastase (protein)
chain: IVGGRRARPHAWPFMVSLQLRGGHFCGATLIAPNFVMSAAHCVANVNVRAVRVVLGAHNLSRREPTRQVFAVQRIFENGYDPVNLLNDIVILQLNGSATINANVQVAQLPAQGRRLGNGVQCLAMGWGLLGRNRGIASVLQELNVTVVTSLCRRSNVCTLVRGRQAGVCFGDSGSPLVCNGLIHGIASFVRGGCASGLYPDAFAPVAQFVNWIDSIIQ
Regarding B1, the “calprotectin fragments identified by non-targeted mass spectrometry after in vitro cleavage” value is “several neo-epitope containing calprotectin fragments were generated by HNE, from both the S100A9 and S100A8 proteins”.

Source of the values: patent US20230184787.
